The experiment deals with truncated RBD variant RBD-215 (amino acids R319-L533), plant-produced (SARS-CoV-2) (UniProt P0DTC2). The experiment is described as follows: SEC; IMAC-purified RBD-215 (Supplementary Figure 4). (In general: In gel filtration, larger molecules generally elute earlier.)

As for “truncated RBD variant RBD-215 (amino acids R319-L533), plant-produced (from UniProt P0DTC2 319-533) (domain or fragment)”, the percent dimers was determined as 10%.

The values above are taken from paper PMC8239413.
